US20250027068

Molecular target: pooled human IgG (human IgG1,2,3 and 4)

Protein | Enzyme Activity Endpoint Assay (purified): Fab′2 | Enzyme Activity Endpoint Assay (purified): Fc | Enzyme Activity Endpoint Assay (purified): IgG | Enzyme Activity Endpoint Assay (purified): scIgG
PRT-346 (protein) MSQTEDSESLQRLRDIEDFQAEKEMQNVVYTKWLDGVDVKDHDFRKIVDGNSAYYATPLLNGRGFYDINKDFNRDSDKCAAAVAANMFHYWLDINRDNVDRFLRQNPEKHGIIELPDGQLKLSDFLNTYESDHGYRDKSKLFDFISNNFNGPVWTDKLLDNYINGYAYNYKYGRTIEDPTKNTSKINFFKEVFNEKILTNNHSIRNQNEFSVLLSEALYTGKAIGLSYGPAGLRHSLGHIISVWGADLDADGNVVAIYVTDSDDKKLTIGDERVGLKRYKISTDDENRLRLTAYEETHNTGGQVRGLWTLDTGKYAWADYFDKTEQTGTDQAEQ | 607 ng/µL | 217 ng/µL | 0 ng/µL | 246 ng/µL
PRT-347 (protein) MSQTEDSESLQRLRDIEDFQAEKEMQNVVYTKWLDGVDVKDHDFRKIVDGNSAYYATPLLNGRGWYDINKDFNRDSDKCAAAVAANMFHYWLDINRDNVDRFLRQNPEKHGIIELPDGQLKLSDFLNTYESDHGYRDKSKLFDFISNNFNGPVWTDKLLDNYINGYAYNYKYGRTIEDPTKNTSKINFFKEVFNEKILTNNHSIRNQNEFSVLLSEALYTGKAIGLSYGPAGLRHSLGHIISVWGADLDADGNVVAIYVTDSDDKKLTIGDERVGLKRYKISTDDENRLRLTAYEETHNTGGQVRGLWTLDTGKYAWADYFDKTEQTGTDQAEQ | 769 ng/µL | 397 ng/µL | 0 ng/µL | 309 ng/µL
PRT-355 (protein) MSQTEDSESLQRLRDIEDFQAEKKMQNVVYTKWLDGVDVKDHDFRKIVDGNEAYYATPLLNGRGFYDINKDFNRDSDKCAAAVAANMFHYWLDINRDNVDRFLRQNPEKHGIIELPDGQLKLSDFLNTYESDHGYRDKSKLFDFISENFNGPVWTDKLLDNYINGYAYNYKYGRLIEDPTKNTSKINFFKEVFNEKILTNNHSIRNQNELSVLLSEALYTGKAIGLSYGPAGTRHSLGHIISVWGADLDADGNVVAIYVTDSDDKKLTIGDERVGLKRYKISTDDENRLRLTAYEETHNTGGQIRGLWTLDTGKYAWADYFDKTEQTGTDQAEQ | 952 ng/µL | 500 ng/µL | 0 ng/µL | 367 ng/µL
PRT-369 (protein) MSQTEDSESLQRLRDIEDFQAEKKDQNVVYTKWLDGVDVKDHDFRKIVDGNIAYYATPLLNGRGLYDINKDFNRDNDKCAAAVAANMFHYWLDRNRDNVDRFLRQNPEKHGIIELPDGQLKLSDFLNTYESDDGYRDKSKLFDFISENFNGPVWTDKLLDNYINGYAYNYKYGRTIEDSTKNTSKINFFKEVFNEKILTNNHSIRNQNELSVLLSEALYTGKAIGLSYGPAGLRHSLGHIISVWGADLDADGNVVAIYVTDSDDKKLTIGDERVGLKRYKISTDDEGRLRLTAYEETHNTGGQVRGLWTLDTGKQAWADYFDKTEQTGTDQAEQ | 259 ng/µL | 284 ng/µL | 123 ng/µL | 445 ng/µL
PRT-362 (protein) MSQTEDSESLQRLRDIEDFQAEKKKQNVVYTKWLDGVDVKDHDFRKIVDGNSAYYATPLLNGRGFYDINKDFNRDSDKCAAAVAANMFHYWLDRNRDNVDRFLRQNPEKHGIIELPDGQLKLSDFLNTYESDDGYRDKSKLFDFISENFNGPVWTDKLLDNYINGYAYNSKYGRTIEDPTKNTSKINFFKEVFNEKILTNNHSIRNQNEFSVLLIEALYTGKAIGLSYGPAGLRHGLGHIISVWGADLDADGNVVAIYVTDSDDKKLTIGDERVGLKRYKISTDDEGRLRLTAYEETHNTGGQIRGLWTLDTGKQAWADYFDKTEQTGTDQAEQ | 720 ng/µL | 225 ng/µL | 0 ng/µL | 299 ng/µL
PRT-370 (protein) MSQTEDSESLQRLRDIEDFQAEKKDQNVVYTKWLDGVDVKDHDFRKIVDGNSAYYATPLLNGRGWYDINKDFNRDNDKCAAAVAANMFHYWLDRNRDNVDRFLRQNPEKHGIIELPDGQLKLSDFLNTYESDDGYRDKSKLFDFISENFNGPVWTDKLLDNYINGYAYNYKYGRTIEDSTKNTSKINFFKEVFNEKILTNNHSIRNQNEFSVLLIEALYTGKAIGLSYGPAGLRHSLGHIISVWGADLDADGNVVAIYVTDSDDKKLTIGDERVGLKRYKISTDDEGRLRLTAYEETHNTGGQVRGLWTLDTGKQAWADYFDKTEQTGTDQAEQ | 654 ng/µL | 348 ng/µL | 0 ng/µL | 288 ng/µL
PRT-354 (protein) MSQTEDSESLQRLRDIEDFQAEKKMQNVVYTKWLDGVDVKDHDFRKIVDGNEAYYATPLLNGRGFYDINKDFNRDSDKCAAAVAANMFHYWLDINRDNVDRFLRQNPEKHGIIELPDGQLKLSDFLNTYESDHGYRDKSKLFDFISENFNGPVWTDKLLDNYINGYAYNYKYGRTIEDPTKNTSKINFFKEVFNEKILTNNHSIRNQNELSVLLSEALYTGKAIGLSYGPAGLRHSLGHIISVWGADLDADGNVVAIYVTDSDDKKLTIGDERVGLKRYKISTDDENRLRLTAYEETHNTGGQIRGLWTLDTGKYAWADYFDKTEQTGTDQAEQ | 618 ng/µL | 213 ng/µL | 0 ng/µL | 233 ng/µL
PRT-338 (protein) MTITSVWTKGVTPPTPEDFRENNEDVLHAPYLANQGWYDITKAFDGKDNLLCGAATAGNMLHWWFDQNKEEIERYLKKHPEKQKIIFNNQELFDVKAAIDTKDSQTNSKLFNYFRDKAFPNLSARQLGVMPDLVLDMFINGYYLNLGKTQSTDVNRPYQDKDKRGGIFDAVFTRGDQTTLLTARHDLKNKGLNEISDLIKQELTEGKALALSHTYANVSINHVINLWGADFDAEGNLEAIYVTDSDANASIGMKKYFVGRNAHGKVAISAKKIEGDNIGAQVLGLFTLSLGQDIWQKLS | 766 ng/µL | 203 ng/µL | 0 ng/µL | 287 ng/µL
PRT-339 (protein) MTITSVWTKGVTPPTPEDFRENNEDVLHAPYLANQGWYDITKAFDGKDNLLCGAATAGNMLHWWFDQNKEEIERYLKKHPEKQKIIFGNQELFDVKAAIDTKDSQTNSKLFDYFRDKAFPNLSARQLGVMPDLVLDMFINGYYLNLGKTQSTDVNRPYQDKDKRGGIFDAVFTRGDQTTLLTARHDLKNKGLNEISDLIKQELTEGKALALSHTYANVSINHVINLWGADFDAEGNLEAIYVTDSDANASIGMKKYFVGRNAHGKVAISAKKIEGDNIGAQVLGLFTLSTGQDQWQKLS | 721 ng/µL | 167 ng/µL | 0 ng/µL | 288 ng/µL
